# Test results as given in US20240161865A1, “METHODS AND PROTEINS FOR TARGETING MAIN PROTEASE OF CORONAVIRUS” (priority 2022, published 2024).
# Assay type: physicochemical
# Conditions: 0.5 mg/mL protein, 25 mM HEPES pH 7.5, 1 mM TCEP, scan 15 to 65° C. at 60° C./hour
substance,measurement,value
"WT Mpro: wild-type SARS-CoV-2 main protease (nsp5), recombinant from E. coli",temperature associated with the DSC thermogram peak,57.2 °C
